According to patent US20220411483A1 (Chugai, published 2022):
Where a chain is given by its changes, count along the chain named.

B1: IL6R-BP504/IL6R-L (antibody, human IgG1, kappa, name in EU numbering)
heavy: QVQLQESGPGLVKPSETLSLTCAVSGHSISHDHAWSWVRQPPGEGLEWIGFISYSGITNYNPSLQGRVTISRDNSKNTLYLQMNSLRAEDTAVYYCARSLARTTAMDYWGEGTLVTVSSASTKGPSVFPLAPSSKSTSGGTAALGCLVKDYFPEPVTVSWNSGALTSGVHTFPAVLQSSGLYSLSSVVTVPSSSLGTQTYICNVNHKPSNTKVDKKVEPKSCDKTHTCPPCPAPDLLGDDSVFLFPPKPKDTLMISRTPEVTCVVIDVAEEDGPVKFNWYVDGVEVHNAKTKPREEQYNSTYRVVSVLTVLHQDWLNGKEYKCKVSNKALPAPIEKTISKAKGQPREPQVYTLPPSRDELTKNQVSLTCLVKGFYPSDIAVEWESNGQPENNYKTTPPVLDSDGSFFLYSKLTVDKSRWQQGNVFSCSVMHEALHNHYTQESLSLSP
light: not shown
notes: human IgG1
B2: IL6R-BP505/IL6R-L (antibody, human IgG1, kappa, name in EU numbering)
heavy: B1 heavy with P274D
light: not shown
notes: human IgG1
B3: IL6R-BP508/IL6R-L (antibody, human IgG1, kappa, name in EU numbering)
heavy: B1 heavy with Y298D
light: not shown
notes: human IgG1
B4: IL6R-BP509/IL6R-L (antibody, human IgG1, kappa, name in EU numbering)
heavy: B1 heavy with P274D, Y298D
light: not shown
notes: human IgG1
B5: IL6R-BP549/IL6R-L (antibody, human IgG1, kappa, name in EU numbering)
heavy: B1 heavy with D235E, I266V, A269G, P274E, A332R
light: not shown
notes: human IgG1
B6: IL6R-BP559/IL6R-L (antibody, human IgG1, kappa, name in EU numbering)
heavy: B1 heavy with D235E, D239G, P274D, Y298D
light: not shown
notes: human IgG1
B7: IL6R-BP560/IL6R-L (antibody, human IgG1, kappa, name in EU numbering)
heavy: B1 heavy with D235E, D239G, I266V, A269G, P274E, Y298D, A332R
light: not shown
notes: human IgG1
B8: IL6R-BP562/IL6R-L (antibody, human IgG1, kappa, name in EU numbering)
heavy: B1 heavy with D235E, I266V, A269S, E270D, P274D, Y298D, A332R
light: not shown
notes: human IgG1
B9: IL6R-BP564/IL6R-L (antibody, human IgG1, kappa, name in EU numbering)
heavy: B1 heavy with D235E, I266V, A269S, P274D, Y298D, A332R
light: not shown
notes: human IgG1
B10: IL6R-BP567/IL6R-L (antibody, human IgG1, kappa, name in EU numbering)
heavy: B1 heavy with D239G, P274E, Y298D
light: not shown
notes: human IgG1
B11: IL6R-BP568/IL6R-L (antibody, human IgG1, kappa, name in EU numbering)
heavy: B1 heavy with D239G, P274E
light: not shown
notes: human IgG1

Each binder was assayed against T1, FcγRIIb extracellular domain with C-terminal His tag (human, UniProt P31994 43-217) (assay: SPR; KD of IL6R-B3/IL6R-L divided by KD of variant).
T1 construct: extracellular domain; also called FcgRIIb; not shown: His tag at the C terminus
T1 sequence (looked up): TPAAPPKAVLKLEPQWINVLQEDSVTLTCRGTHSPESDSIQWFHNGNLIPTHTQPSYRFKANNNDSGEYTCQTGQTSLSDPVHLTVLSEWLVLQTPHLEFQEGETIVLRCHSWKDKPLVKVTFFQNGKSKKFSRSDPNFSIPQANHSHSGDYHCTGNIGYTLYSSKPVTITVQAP
In the case of B1, the “Relative FcgRIIb-binding Activity” value is reported as 127. For B2, the “Relative FcgRIIb-binding Activity” value was 144. With B3 the “Relative FcgRIIb-binding Activity” value was 149. In the case of B4, the “Relative FcgRIIb-binding Activity” value is reported as 174. With B5 the “Relative FcgRIIb-binding Activity” value was 196. For B6, the “Relative FcgRIIb-binding Activity” value was 110. With B7 the “Relative FcgRIIb-binding Activity” value was 16.8. In the case of B8, the “Relative FcgRIIb-binding Activity” value is reported as 131. In the case of B9, the “Relative FcgRIIb-binding Activity” value is reported as 140. With B10 the “Relative FcgRIIb-binding Activity” value was 224. For B11, the “Relative FcgRIIb-binding Activity” value was 210.

The binders below were run against T2, FcγRIIa R type extracellular domain with C-terminal His tag (human, UniProt P12318 34-217) (assay: SPR; KD of IL6R-B3/IL6R-L divided by KD of variant).
T2 construct: extracellular domain; also called FcgRIIaR; not shown: His tag at the C terminus
T2 sequence (looked up): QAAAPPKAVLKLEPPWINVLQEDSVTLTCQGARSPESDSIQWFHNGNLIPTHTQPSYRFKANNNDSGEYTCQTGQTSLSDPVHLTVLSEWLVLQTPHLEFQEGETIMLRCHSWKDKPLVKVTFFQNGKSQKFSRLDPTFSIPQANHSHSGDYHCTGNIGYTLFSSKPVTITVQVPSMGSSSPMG
For B1, the “Relative FcgRIIaR-binding Activity” value was 2.4. B2 was tested, and the “Relative FcgRIIaR-binding Activity” value was 2.5. In the case of B3, the “Relative FcgRIIaR-binding Activity” value is reported as 2. For B4, the “Relative FcgRIIaR-binding Activity” value was 2.1. For B5, the “Relative FcgRIIaR-binding Activity” value was 1.9. For B6, the “Relative FcgRIIaR-binding Activity” value was 0.7. For B7, the “Relative FcgRIIaR-binding Activity” value was 0.3. For B8, the “Relative FcgRIIaR-binding Activity” value was 1.6. With B9 the “Relative FcgRIIaR-binding Activity” value was 1.9. For B10, the “Relative FcgRIIaR-binding Activity” value was 1.2. With B11 the “Relative FcgRIIaR-binding Activity” value was 1.6.

Each binder was assayed against T1, FcγRIIb extracellular domain with … (assay: SPR, antibody captured, FcgR analyte).
B1 gave a Kd of 24 nM. Binder B2 has a Kd of 21 nM. B3 was tested, and the Kd was 21 nM. B4 gave a Kd of 18 nM. With B5 the Kd was 16 nM. B6 gave a Kd of 28 nM. In the case of B7, the Kd is reported as 180 nM. Work on B8 yielded a Kd of 24 nM. For B9, the Kd was 22 nM. B10 was tested, and the Kd was 14 nM. B11 showed a Kd of 15 nM.

What follows are binders tested against T3, FcγRIa extracellular domain with C-terminal His tag (human, UniProt P12314 16-292) (assay: SPR, antibody captured, FcgR analyte).
T3 construct: also called FcgRIa; CD64; not shown: His tag at the C terminus
T3 sequence (P12314 16-292): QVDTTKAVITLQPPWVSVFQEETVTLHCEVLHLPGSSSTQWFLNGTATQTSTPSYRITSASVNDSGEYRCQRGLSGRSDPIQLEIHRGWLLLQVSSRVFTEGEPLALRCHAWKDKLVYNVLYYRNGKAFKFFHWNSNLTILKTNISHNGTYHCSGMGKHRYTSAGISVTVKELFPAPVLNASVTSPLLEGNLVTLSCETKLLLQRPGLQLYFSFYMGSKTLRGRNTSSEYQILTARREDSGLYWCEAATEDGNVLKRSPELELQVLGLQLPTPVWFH
With B1 the Kd was 1.4 nM. Binder B2 has a Kd of 1.1 nM. With B3 the Kd was 1.4 nM. B4 gave a Kd of 1.1 nM. With B5 the Kd was 18 nM. Binder B6 has a Kd of 1.1 nM. For B7, the Kd was 5.6 nM. B8 gave a Kd of 25 nM. Work on B9 yielded a Kd of 31 nM. B10 showed a Kd of 0.21 nM. B11 was tested, and the Kd was 0.19 nM.

Each binder was assayed against T2, FcγRIIa R type extracellular domain … (assay: SPR, antibody captured, FcgR analyte).
B1 was tested, and the Kd was 450 nM. B2 gave a Kd of 430 nM. With B3 the Kd was 540 nM. For B4, the Kd was 520 nM. B5 gave a Kd of 570 nM. B6 gave a Kd of 1600 nM. B7 showed a Kd of 4200 nM. B8 showed a Kd of 680 nM. B9 was tested, and the Kd was 580 nM. For B10, the Kd was 890 nM. B11 gave a Kd of 680 nM.
